Assay results as given in doi:10.1101/2020.07.23.218024 (bioRxiv, 2020).
Residue numbers refer to the chain shown, from its start. Names may count otherwise.

Assays:
[1] = target: microtubules / purified porcine brain tubulin (porcine); assay: ELISA
ß-tubulin(388–444) = ß-tubulin(388–444) (human, UniProt P07437 388-444); assay: ITC
15N-PEX14(16–80W) [2] = target: T1, 15N-PEX14(16–80W) (human, UniProt O75381 16-80, 15N-labelled); assay: NMR titration
T1 chain: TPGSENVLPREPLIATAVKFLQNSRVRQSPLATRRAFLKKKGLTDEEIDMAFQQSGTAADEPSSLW

15N-PEX14(16–80W) [3] = target: T1, 15N-PEX14(16–80W); assay: NMR titration
[4] = target: full-length His6-TEV-PEX5S (human, UniProt P50542-2 1-602); assay: ELISA

ß-tubulin(388–444), sequence (P07437 388-444): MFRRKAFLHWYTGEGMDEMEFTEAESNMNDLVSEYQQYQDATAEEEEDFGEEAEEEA

B1: GST-PEX14-NTD F52A (domain or fragment)
chain: TPGSENVLPREPLIATAVKFLQNSRVRQSPLATRRAALKKKGLTDEEIDMAFQQSGTAADEPSSL
B1 gave a Kd [1] of 39 ± 7.4 nM.

B2: PEX14-NTD (as used in ITC) (domain or fragment)
chain: B1 chain with A37F
With B2 the “stoichiometry N” value (ß-tubulin(388–444)) was 2.

RKAFLHWYTGEGMDE [FLHWY peptide] showed a Kd (15N-PEX14(16–80W) [2]) of ~282000 nM.

ALSENWAQEFLAAGDA [WAQEF peptide]: binds (15N-PEX14(16–80W) [3]).

B3: GST-PEX14-NTD K56A (domain or fragment)
chain: MASSEQAEQPSQPSSTPGSENVLPREPLIATAVKFLQNSRVRQSPLATRRAFLKKAGLTDEEIDMAFQQSGTAADEPS
With B3 the Kd [1] was 12.5 ± 1.3 nM.

B4: GST-PEX14-NTD K54A (domain or fragment)
chain: B3 chain with K54A, A56K
With B4 the Kd [1] was 3.9 ± 0.2 nM.

B5: GST-PEX14-NTD F52A/K56A (domain or fragment)
chain: B3 chain with F52A
B5 was tested, and the Kd [1] was 89 ± 17 nM.

Work on MNDLVSEYQQYQDAT [LVSEY peptide] yielded a Kd (15N-PEX14(16–80W) [2]) of ~5000 nM.

B6: GST-PEX14-NTD (domain or fragment)
chain: MASSEQAEQPSQPSSTPGSENVLPREPLIATAVKFLQNSRVRQSPLATRRAFLKKKGLTDEEIDMAFQQSGTAADEPSSL
For B6, the Kd [4] was ~0.5 nM.

B7: His-PEX14-NTD (domain or fragment)
chain: B6 chain
In the case of B7, the Kd [4] is reported as ~1.3 nM.
